In patent US20110294167:

Key:
[1] = tested on: T1, ORF904 primase (residues 1-370) (Sulfolobus islandicus); conditions: primer synthesis inferred from primer-free amplification with Phi29, 1500 ng primase vs Phi29 only; 10 mM MgCl2, 1 mM ATP, 30 C
T1 sequence: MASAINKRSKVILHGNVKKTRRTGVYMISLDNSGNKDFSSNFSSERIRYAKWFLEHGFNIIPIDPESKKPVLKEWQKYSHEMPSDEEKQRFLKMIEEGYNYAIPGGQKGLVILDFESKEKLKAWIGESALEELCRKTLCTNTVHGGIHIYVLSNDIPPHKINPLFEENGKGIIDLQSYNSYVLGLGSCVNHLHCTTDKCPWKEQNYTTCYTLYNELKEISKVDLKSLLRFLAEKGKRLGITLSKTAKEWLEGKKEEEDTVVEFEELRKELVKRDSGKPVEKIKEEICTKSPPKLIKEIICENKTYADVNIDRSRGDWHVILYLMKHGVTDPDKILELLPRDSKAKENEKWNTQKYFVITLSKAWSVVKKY

[2] = biological target: T7 gp4 K318A primase (Bacteriophage T7) (UniProt P03692); conditions: amplification with Phi29 and T7 DNA polymerase; 10 mM MgCl2, NTPs, 30 C

M13 ssDNA (M13mp18) showed an activity [1] of 13 fold and an activity [2] of 4000 fold.
